Test results from paper doi:10.1101/2024.01.25.576086.

Assays:
VHL-LgBiT (human) = VHL-LgBiT (human) (UniProt P40337)
[1] = target: biotinylated pVHL-Elongin B-Elongin C complex (bio-VBC) (human) (UniProt P40337); test: SPR

Substance	HiBiT degradation assay of CDO1 in HEK293T cells with compound 8; absDC50 (VHL-LgBiT (human))	KD with compound 4 [1]
SmBiT-CDO1 (from UniProt Q16878 1-200) (enzyme)	8 nM	–
CDO1(Q99N) (from UniProt Q16878 1-200) (enzyme)	–	> 40 µM
